Here are results for one substance from article PMC3422348.

The target of this assay is Cdc37 (Cell division cycle protein 37) (human (endogenous in MDA-MB-453 and MDA-MB-231)) (UniProt Q16543). The assay can be described thus: co-IP; membrane fractions of MDA-MB-453 and MDA-MB-231 cells immunoprecipitated with anti-Cdc37 (18 h, 4°C, protein G-Sepharose), Western blot with anti-HSP90, anti-HER2, anti-EGFR; cells cultured in control medium or with 200 µg/ml anti-Cdc37 or 200 µg/ml mAb 4C5 for 16 h; densitometry.
UniProt Q16543, sequence (Q16543 whole entry): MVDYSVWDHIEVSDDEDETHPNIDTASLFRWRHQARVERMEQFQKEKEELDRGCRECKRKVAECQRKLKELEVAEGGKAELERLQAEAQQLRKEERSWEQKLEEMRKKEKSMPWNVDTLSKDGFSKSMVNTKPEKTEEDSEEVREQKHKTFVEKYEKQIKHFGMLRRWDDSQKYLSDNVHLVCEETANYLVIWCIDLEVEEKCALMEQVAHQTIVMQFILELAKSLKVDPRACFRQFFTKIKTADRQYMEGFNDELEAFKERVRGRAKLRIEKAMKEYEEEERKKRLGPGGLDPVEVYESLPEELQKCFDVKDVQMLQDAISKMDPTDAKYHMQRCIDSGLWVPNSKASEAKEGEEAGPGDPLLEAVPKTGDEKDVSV

Take “HSP90 (from UniProt P07900 1-732) (natural protein)”: the percent decrease of the co-precipitate with 200 µg/ml anti-Cdc37 in the medium (MDA-MB 231) is 56%, the percent decrease of the co-precipitate with 200 µg/ml anti-Cdc37 in the medium (MDA-MB 453) was 33%, the percent decrease of the co-precipitate with 200 µg/ml mAb 4C5 in the medium (MDA-MB 231) is 88% and the percent decrease of the co-precipitate with 200 µg/ml mAb 4C5 in the medium (MDA-MB 453) amounted to 60%.
